{"source": "paper PMC9371925", "about": "(Nucleic Acids Research, 2022)", "molecules": {"B1": {"name": "zitB Zur-box 33 bp (-68 to -36) (dsDNA)", "DNA 1": "CAAGGCACATGACAACGGTGTTCAGTGCCGCGT", "DNA 2": "ACGCGGCACTGAACACCGTTGTCATGTGCCTTG"}, "B2": {"name": "M2 33 bp (dsDNA)", "DNA 1": "B1 DNA 1 with G11C, G17T, C23G", "DNA 2": "B1 DNA 2 with G11C, C17A, C23G"}, "B3": {"name": "Streptomyces coelicolor RNA polymerase α subunit (natural protein, Streptomyces coelicolor M145)", "chain": "MLIAQRPSLTEEVVDEFRSRFVIEPLEPGFGYTLGNSLRRTLLSSIPGAAVTSIRIDGVLHEFTTVPGVKEDVTDLILNIKQLVVSSEHDEPVVMYLRKQGPGLVTAADIAPPAGVEVHNPDLVLATLNGKGKLEMELTVERGRGYVSAVQNKQVGQEIGRIPVDSIYSPVLKVTYKVEATRVEQRTDFDKLIVDVETKQAMRPRDAMASAGKTLVELFGLARELNIDAEGIDMGPSPTDAALAADLALPIEELELTVRSYNCLKREGIHSVGELVARSEADLLDIRNFGAKSIDEVKAKLAGMGLALKDSPPGFDPTAAADAFGADDDADAGFVETEQY"}}, "key": {"[1]": {"target": "Streptomyces coelicolor zinc uptake regulator (ScZur) (Streptomyces coelicolor M145)", "test": "cryo-EM structure"}, "[2]": {"target": "T1, ScZur (Streptomyces coelicolor M145, UniProt Q9L2H5 1-139)", "T1 sequence": "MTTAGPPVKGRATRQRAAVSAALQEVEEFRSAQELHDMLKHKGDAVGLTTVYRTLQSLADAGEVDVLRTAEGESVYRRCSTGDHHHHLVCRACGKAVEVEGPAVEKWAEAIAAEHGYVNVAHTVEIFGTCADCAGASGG", "test": "EMSA"}, "[3]": {"target": "T1, ScZur", "test": "EMSA", "remark": "listed apart in the source"}, "[4]": {"target": "the molecule itself", "test": "cryo-EM structure"}}, "note": "Numbering of substitutions follows the chain as printed. Several values for one entry are separate records, joined by “and”; a condition that tells them apart may be missing. Equal values may be shown once. Read-outs that look alike come from different tables or passages of the source.", "data": [{"molecule": "Streptomyces coelicolor zinc uptake regulator (ScZur) (natural protein)", "values": [{"measurement": "stoichiometry N", "setting": "[1]", "result": "6 and 4"}]}, {"molecule": "B1", "values": [{"measurement": "Kd", "setting": "[2]", "result": "34 ± 0.7", "unit": "nM"}]}, {"molecule": "B2", "values": [{"measurement": "Kd", "setting": "[3]", "result": "223 ± 30.5", "unit": "nM"}]}, {"molecule": "B3", "values": [{"measurement": "binding result", "setting": "[4]", "result": "binds"}]}]}
